In assay [1] the target is T1, EV-D68 mature virion, strain US/MO/14-18947 (clade B) (enterovirus D68 strain US/MO/14-18947).
T1 chain 1: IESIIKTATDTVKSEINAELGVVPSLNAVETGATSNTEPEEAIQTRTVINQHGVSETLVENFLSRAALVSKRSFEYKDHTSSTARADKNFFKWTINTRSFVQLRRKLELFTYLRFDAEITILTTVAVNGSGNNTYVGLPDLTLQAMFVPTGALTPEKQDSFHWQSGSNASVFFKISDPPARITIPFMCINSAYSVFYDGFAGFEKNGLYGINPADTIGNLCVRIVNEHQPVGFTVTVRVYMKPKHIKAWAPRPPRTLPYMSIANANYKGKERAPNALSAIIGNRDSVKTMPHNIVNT
T1 chain 2: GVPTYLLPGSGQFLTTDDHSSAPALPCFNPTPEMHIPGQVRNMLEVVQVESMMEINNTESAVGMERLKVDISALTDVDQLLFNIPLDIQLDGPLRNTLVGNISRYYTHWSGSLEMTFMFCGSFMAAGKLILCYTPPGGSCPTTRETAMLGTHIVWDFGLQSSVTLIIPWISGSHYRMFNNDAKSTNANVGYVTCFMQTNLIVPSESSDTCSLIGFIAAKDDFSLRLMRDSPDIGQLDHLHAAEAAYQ
T1 chain 3: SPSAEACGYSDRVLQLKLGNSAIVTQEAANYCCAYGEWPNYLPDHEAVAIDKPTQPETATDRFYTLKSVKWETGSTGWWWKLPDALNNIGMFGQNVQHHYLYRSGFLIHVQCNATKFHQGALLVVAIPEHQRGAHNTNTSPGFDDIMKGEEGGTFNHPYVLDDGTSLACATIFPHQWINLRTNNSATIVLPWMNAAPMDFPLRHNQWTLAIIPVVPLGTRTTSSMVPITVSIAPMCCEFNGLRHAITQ
T1 chain 4: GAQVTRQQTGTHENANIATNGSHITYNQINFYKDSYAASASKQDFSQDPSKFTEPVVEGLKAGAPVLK
Nature of the assay: BLI. (In general: BLI is a label-free optical method that tracks binding on a fibre tip over time.)

In assay [2] the target is T1, EV-D68 mature virion, strain …. Briefly: BLI.

What is called koff is the rate constant with which the complex falls apart. One may read the Kd as a measure of binding affinity in units of concentration.

B1: human-mouse chimeric MAb 8F12 (antibody, V domains shown)
VH: QVQLQQPGTELVRPGASVKLSCKASGYSFTSYWMNWVKQRPGQGLEWIGMIHPSDSETRLNQRFKDKATLTVDKSSNTAYMQLSSPTSEDSAVYYCAREGYDYDGFAYWGQGTLVTVSA
VL: QIVLTQSPAAMSASPGEKVTMTCSASSSVIYMYWYQQKPGSSPRLLIYDTSNLASGVPVRFSGSGSGTSYSLTISRMEAEDAATYYCQQWSSFPYTFGGGTKLEIK
As to B1, the off-rate constant (koff) in assay [1] was 0.0044 s⁻¹.

B2: human-mouse chimeric MAb 2H12 (antibody, V domains shown)
VH: QVQLQQPGAELVMPGASVKMSCKASGYTFTDYWMHWVKQRPGQGLEWIGAIDTSDSYTTYNRKFKGKATLTVDESSSTAYMQLISLTSEDSAVYYCARGGGGNSPFAYWGQGTLVTVSA
VL: DIQMTQSPSSLSASLGERVSLTCRASQDIGSSLNWLQQEPDGTIKRLIYATSSLDSGVPKRFSGSRSGSDYSLTISSLESEDFVDYYCLQYASFPLTFGAGTKLELK
The molecule B2 yielded an equilibrium dissociation constant (Kd) in assay [2] of 2.9 nM. Further, the off-rate (koff) in assay [1] came to 0.00055 s⁻¹.
